Results on 1 protein are retold here after US20130115645.

The data set deals with human prothrombin (Enzyme Research Laboratories), P00734.

B1: Fibrinogen-like protein 2 (FGL-2)/fibroleukin, human (protein)
chain: NNETEEIKDERAKDVCPVRLESRGKCEEAGECPYQVSLPPLTIQLPKQFSRIEEVFKEVQNLKEIVNSLKKSCQDCKLQADDNGDPGRNGLLLPSTGAPGEVGDNRVRELESEVNKLSSELKNAKEEINVLHGRLEKLNLVNMNNIENYVDSKVANLTFVVNSLDGKCSKCPSQEQIQSRPVQHLIYKDCSDYYAIGKRSSETYRVTPDPKNSSFEVYCDMETMGGGWTVLQARLDGSTNFTRTWQDYKAGFGNLRREFWLGNDKIHLLTKSKEMILRIDLEDFNGVELYALYDQFYVANEFLKYRLHVGNYNGTAGDALRFNKHYNHDLKFFTTPDKDNDRYPSGNCGLYYSSGWWFDACLSANLNGKYYHQKYRGVRNGIFWGTWPGVSEAHPGGYKSSFKEAKMMIRPKHFKP
On to B1, for which the “FGL-2 prothrombinase activity (thrombin generation assay, chromogenic substrate, 405 nm)” value was “FGL-2 prothrombinase activity in HUVEC was only observed following maximal stimulation with TNFα”.
